Test results taken from article PMC10701690, “Structural characterization of human de novo protein NCYM and its complex with a newly identified DNA aptamer using atomic force microscopy and small-angle X-ray scattering”.

Columns and labels:
NCYM [1] = molecular target: T1, NCYM (Homo sapiens, UniProt P40205 1-109); test: BLI; text gives 299 nM as top of range; BLI: 25 C, NCYM 25-400 nM, buffer not stated (selection buffer: 40 mM HEPES pH 7.5, 125 mM NaCl, 5 mM KCl, 1 mM MgCl2, 0.01% Tween 20); AFM: 20 mM Tris-HCl pH 7.4, 10 mM MgCl2, 1 mM EDTA, 25 C, 2 h, NCYM 100 nM, aptamer frame 10 nM; SAXS: 293 K; conditions: protein: recombinant; tags: N-terminal GST tag cleaved, 8 vector residues left (117 aa; stated for SAXS); label: 5'-biotin (BLI)
T1 sequence: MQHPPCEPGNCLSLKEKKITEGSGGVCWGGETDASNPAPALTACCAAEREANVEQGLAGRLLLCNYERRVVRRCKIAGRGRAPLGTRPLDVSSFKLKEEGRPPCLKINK

NCYM [2] = molecular target: T1, NCYM; test: BLI; BLI: 25 C, NCYM 25-400 nM, buffer not stated (selection buffer: 40 mM HEPES pH 7.5, 125 mM NaCl, 5 mM KCl, 1 mM MgCl2, 0.01% Tween 20); AFM: 20 mM Tris-HCl pH 7.4, 10 mM MgCl2, 1 mM EDTA, 25 C, 2 h, NCYM 100 nM, aptamer frame 10 nM; SAXS: 293 K; conditions: protein: recombinant, tags: N-terminal GST tag cleaved, 8 vector residues left (117 aa; stated for SAXS), label: 5'-biotin (BLI)

B1: aptamer No. 2 (ssDNA)
DNA: GGAATGTGGTCCCTCGCAATAAATCGGGGAGGGAGGGTGGGGGCGGTGGGAGGTGGAAATGAGCCCTTTGACCCTGTAC
In the case of B1, the Kd (NCYM [1]) is reported as 298 ± 88.7 nM.

B2: aptamer No. 3 (ssDNA)
DNA: GGAATGTGGTCCCTCGCAATAAATCGGGCGTTGTGGAGGGGGCGGTGGGTGGGGGGAAATGAGCCCTTTGACCCTGTAC
B2 showed a Kd (NCYM [2]) of 53.9 ± 1.06 nM.

B3: aptamer No. 1 (ssDNA)
DNA: GGAATGTGGTCCCTCGCAATAAATCTATGTACGTTATTCCCCTTTGACCAATGCTGAAATGAGCCCTTTGACCCTGTAC
For B3, the Kd (NCYM [2]; stem-loops predicted by RNAfold, dimer in solution (SAXS)) was 176 ± 29.1 nM.
